The results in this text go back to paper PMC12186880.

The assay deals with adenine base editing engineered ribonucleoprotein (BE-eRNP): bipartite NLS-TadA(8.20-m)-linker-nCas9(D10A, C80A)-bipartite NLS protein complexed with sgRNA (Escherichia coli | Streptococcus pyogenes). Put plainly: native gel or EMSA. Background: A gel shift assay detects complexes by their altered migration in electrophoresis.

With “adenine base editing engineered ribonucleoprotein (BE-eRNP): bipartite NLS-TadA(8.20-m)-linker-nCas9(D10A, C80A)-bipartite NLS protein complexed with sgRNA (enzyme)”, the stoichiometry N is 2.

A word on the stoichiometry N: it is the number of molecules, sites or subunits per partner or assembly.
